From patent publication US12679878B2, “CRF2 receptor agonists and their use in therapy” (SANOFI, priority 2020, dated 2026)
Starred links: 1 amine or outer side, 2 acyl side, 3 side chain; linkers in the order of their positions; H or OH if unused. Non-standard residues stand in square brackets, D forms with d. Groups on a side chain read outwards from the residue. No end group written: not given here. *: point of attachment. C20 diacid = O=C(O)CCCCCCCCCCCCCCCCCCC(=O)*; C18 diacid = O=C(O)CCCCCCCCCCCCCCCCC(=O)*; γGlu = O=C(O)[C@H](CCC(=O)[*:2])N[*:1]; Palmitoyl = CCCCCCCCCCCCCCCC(=O)*; AEEA = NCCOCCOCC(=O)O; Aib = CC(C)(N)C(=O)O

B1: SEQ ID NO: 172 (peptide)
peptide: IVLSLD[dV]PIKLK([AEEA-AEEA-γGlu-γGlu-C20 diacid])QILLKQERQK[Aib]QREQAEKNKQILAQV-NH2
modifications: N-terminus assumed
SMILES: CC[C@H](C)[C@H](N)C(=O)N[C@H](C(=O)N[C@@H](CC(C)C)C(=O)N[C@@H](CO)C(=O)N[C@@H](CC(C)C)C(=O)N[C@@H](CC(=O)O)C(=O)N[C@@H](C(=O)N1CCC[C@H]1C(=O)N[C@H](C(=O)N[C@@H](CCCCN)C(=O)N[C@@H](CC(C)C)C(=O)N[C@@H](CCCCNC(=O)COCCOCCNC(=O)COCCOCCNC(=O)CC[C@H](NC(=O)CC[C@H](NC(=O)CCCCCCCCCCCCCCCCCCC(=O)O)C(=O)O)C(=O)O)C(=O)N[C@@H](CCC(N)=O)C(=O)N[C@H](C(=O)N[C@@H](CC(C)C)C(=O)N[C@@H](CC(C)C)C(=O)N[C@@H](CCCCN)C(=O)N[C@@H](CCC(N)=O)C(=O)N[C@@H](CCC(=O)O)C(=O)N[C@@H](CCCNC(=N)N)C(=O)N[C@@H](CCC(N)=O)C(=O)N[C@@H](CCCCN)C(=O)NC(C)(C)C(=O)N[C@@H](CCC(N)=O)C(=O)N[C@@H](CCCNC(=N)N)C(=O)N[C@@H](CCC(=O)O)C(=O)N[C@@H](CCC(N)=O)C(=O)N[C@@H](C)C(=O)N[C@@H](CCC(=O)O)C(=O)N[C@@H](CCCCN)C(=O)N[C@@H](CC(N)=O)C(=O)N[C@@H](CCCCN)C(=O)N[C@@H](CCC(N)=O)C(=O)N[C@H](C(=O)N[C@@H](CC(C)C)C(=O)N[C@@H](C)C(=O)N[C@@H](CCC(N)=O)C(=O)N[C@H](C(N)=O)C(C)C)[C@@H](C)CC)[C@@H](C)CC)[C@@H](C)CC)C(C)C)C(C)C
B2: SEQ ID NO: 173 (peptide)
peptide: IVLSLD[dV]PIKLK([AEEA-AEEA-γGlu-C20 diacid])QILLKQERQK[Aib]QREQAEKNKQILAQV-NH2
modifications: N-terminus assumed
SMILES: CC[C@H](C)[C@H](N)C(=O)N[C@H](C(=O)N[C@@H](CC(C)C)C(=O)N[C@@H](CO)C(=O)N[C@@H](CC(C)C)C(=O)N[C@@H](CC(=O)O)C(=O)N[C@@H](C(=O)N1CCC[C@H]1C(=O)N[C@H](C(=O)N[C@@H](CCCCN)C(=O)N[C@@H](CC(C)C)C(=O)N[C@@H](CCCCNC(=O)COCCOCCNC(=O)COCCOCCNC(=O)CC[C@H](NC(=O)CCCCCCCCCCCCCCCCCCC(=O)O)C(=O)O)C(=O)N[C@@H](CCC(N)=O)C(=O)N[C@H](C(=O)N[C@@H](CC(C)C)C(=O)N[C@@H](CC(C)C)C(=O)N[C@@H](CCCCN)C(=O)N[C@@H](CCC(N)=O)C(=O)N[C@@H](CCC(=O)O)C(=O)N[C@@H](CCCNC(=N)N)C(=O)N[C@@H](CCC(N)=O)C(=O)N[C@@H](CCCCN)C(=O)NC(C)(C)C(=O)N[C@@H](CCC(N)=O)C(=O)N[C@@H](CCCNC(=N)N)C(=O)N[C@@H](CCC(=O)O)C(=O)N[C@@H](CCC(N)=O)C(=O)N[C@@H](C)C(=O)N[C@@H](CCC(=O)O)C(=O)N[C@@H](CCCCN)C(=O)N[C@@H](CC(N)=O)C(=O)N[C@@H](CCCCN)C(=O)N[C@@H](CCC(N)=O)C(=O)N[C@H](C(=O)N[C@@H](CC(C)C)C(=O)N[C@@H](C)C(=O)N[C@@H](CCC(N)=O)C(=O)N[C@H](C(N)=O)C(C)C)[C@@H](C)CC)[C@@H](C)CC)[C@@H](C)CC)C(C)C)C(C)C
B3: SEQ ID NO: 170 (peptide)
peptide: Ac-IVLSLD[dV]PIELK([AEEA-AEEA-γGlu-C18 diacid])QILLEQERQE[Aib]QREQAEKNEQILEQV-NH2
SMILES: CC[C@H](C)[C@H](NC(C)=O)C(=O)N[C@H](C(=O)N[C@@H](CC(C)C)C(=O)N[C@@H](CO)C(=O)N[C@@H](CC(C)C)C(=O)N[C@@H](CC(=O)O)C(=O)N[C@@H](C(=O)N1CCC[C@H]1C(=O)N[C@H](C(=O)N[C@@H](CCC(=O)O)C(=O)N[C@@H](CC(C)C)C(=O)N[C@@H](CCCCNC(=O)COCCOCCNC(=O)COCCOCCNC(=O)CC[C@H](NC(=O)CCCCCCCCCCCCCCCCC(=O)O)C(=O)O)C(=O)N[C@@H](CCC(N)=O)C(=O)N[C@H](C(=O)N[C@@H](CC(C)C)C(=O)N[C@@H](CC(C)C)C(=O)N[C@@H](CCC(=O)O)C(=O)N[C@@H](CCC(N)=O)C(=O)N[C@@H](CCC(=O)O)C(=O)N[C@@H](CCCNC(=N)N)C(=O)N[C@@H](CCC(N)=O)C(=O)N[C@@H](CCC(=O)O)C(=O)NC(C)(C)C(=O)N[C@@H](CCC(N)=O)C(=O)N[C@@H](CCCNC(=N)N)C(=O)N[C@@H](CCC(=O)O)C(=O)N[C@@H](CCC(N)=O)C(=O)N[C@@H](C)C(=O)N[C@@H](CCC(=O)O)C(=O)N[C@@H](CCCCN)C(=O)N[C@@H](CC(N)=O)C(=O)N[C@@H](CCC(=O)O)C(=O)N[C@@H](CCC(N)=O)C(=O)N[C@H](C(=O)N[C@@H](CC(C)C)C(=O)N[C@@H](CCC(=O)O)C(=O)N[C@@H](CCC(N)=O)C(=O)N[C@H](C(N)=O)C(C)C)[C@@H](C)CC)[C@@H](C)CC)[C@@H](C)CC)C(C)C)C(C)C
B4: SEQ ID NO: 20 (peptide)
peptide: IVLSLD[dV]PTKLK([γGlu-Palmitoyl])QKLLKQERQRK[Aib]REQAEKNKRILERV-NH2
modifications: N-terminus assumed
SMILES: CCCCCCCCCCCCCCCC(=O)N[C@@H](CCC(=O)NCCCC[C@H](NC(=O)[C@H](CC(C)C)NC(=O)[C@H](CCCCN)NC(=O)[C@@H](NC(=O)[C@@H]1CCCN1C(=O)[C@H](NC(=O)[C@H](CC(=O)O)NC(=O)[C@H](CC(C)C)NC(=O)[C@H](CO)NC(=O)[C@H](CC(C)C)NC(=O)[C@@H](NC(=O)[C@@H](N)[C@@H](C)CC)C(C)C)C(C)C)[C@@H](C)O)C(=O)N[C@@H](CCC(N)=O)C(=O)N[C@@H](CCCCN)C(=O)N[C@@H](CC(C)C)C(=O)N[C@@H](CC(C)C)C(=O)N[C@@H](CCCCN)C(=O)N[C@@H](CCC(N)=O)C(=O)N[C@@H](CCC(=O)O)C(=O)N[C@@H](CCCNC(=N)N)C(=O)N[C@@H](CCC(N)=O)C(=O)N[C@@H](CCCNC(=N)N)C(=O)N[C@@H](CCCCN)C(=O)NC(C)(C)C(=O)N[C@@H](CCCNC(=N)N)C(=O)N[C@@H](CCC(=O)O)C(=O)N[C@@H](CCC(N)=O)C(=O)N[C@@H](C)C(=O)N[C@@H](CCC(=O)O)C(=O)N[C@@H](CCCCN)C(=O)N[C@@H](CC(N)=O)C(=O)N[C@@H](CCCCN)C(=O)N[C@@H](CCCNC(=N)N)C(=O)N[C@H](C(=O)N[C@@H](CC(C)C)C(=O)N[C@@H](CCC(=O)O)C(=O)N[C@@H](CCCNC(=N)N)C(=O)N[C@H](C(N)=O)C(C)C)[C@@H](C)CC)C(=O)O
B5: SEQ ID NO: 174 (peptide)
peptide: IVLSLD[dV]PIKLK([AEEA-AEEA-γGlu-γGlu-C18 diacid])QILLKQARQK[Aib]QRAQAEKNKRILERV-NH2
modifications: N-terminus assumed
SMILES: CC[C@H](C)[C@H](N)C(=O)N[C@H](C(=O)N[C@@H](CC(C)C)C(=O)N[C@@H](CO)C(=O)N[C@@H](CC(C)C)C(=O)N[C@@H](CC(=O)O)C(=O)N[C@@H](C(=O)N1CCC[C@H]1C(=O)N[C@H](C(=O)N[C@@H](CCCCN)C(=O)N[C@@H](CC(C)C)C(=O)N[C@@H](CCCCNC(=O)COCCOCCNC(=O)COCCOCCNC(=O)CC[C@H](NC(=O)CC[C@H](NC(=O)CCCCCCCCCCCCCCCCC(=O)O)C(=O)O)C(=O)O)C(=O)N[C@@H](CCC(N)=O)C(=O)N[C@H](C(=O)N[C@@H](CC(C)C)C(=O)N[C@@H](CC(C)C)C(=O)N[C@@H](CCCCN)C(=O)N[C@@H](CCC(N)=O)C(=O)N[C@@H](C)C(=O)N[C@@H](CCCNC(=N)N)C(=O)N[C@@H](CCC(N)=O)C(=O)N[C@@H](CCCCN)C(=O)NC(C)(C)C(=O)N[C@@H](CCC(N)=O)C(=O)N[C@@H](CCCNC(=N)N)C(=O)N[C@@H](C)C(=O)N[C@@H](CCC(N)=O)C(=O)N[C@@H](C)C(=O)N[C@@H](CCC(=O)O)C(=O)N[C@@H](CCCCN)C(=O)N[C@@H](CC(N)=O)C(=O)N[C@@H](CCCCN)C(=O)N[C@@H](CCCNC(=N)N)C(=O)N[C@H](C(=O)N[C@@H](CC(C)C)C(=O)N[C@@H](CCC(=O)O)C(=O)N[C@@H](CCCNC(=N)N)C(=O)N[C@H](C(N)=O)C(C)C)[C@@H](C)CC)[C@@H](C)CC)[C@@H](C)CC)C(C)C)C(C)C
B6: SEQ ID NO: 171 (peptide)
peptide: IVLSLD[dV]PIKLK([AEEA-AEEA-γGlu-γGlu-C18 diacid])QILLKQERQK[Aib]QREQAEKNKQILAQV-NH2
modifications: N-terminus assumed
SMILES: CC[C@H](C)[C@H](N)C(=O)N[C@H](C(=O)N[C@@H](CC(C)C)C(=O)N[C@@H](CO)C(=O)N[C@@H](CC(C)C)C(=O)N[C@@H](CC(=O)O)C(=O)N[C@@H](C(=O)N1CCC[C@H]1C(=O)N[C@H](C(=O)N[C@@H](CCCCN)C(=O)N[C@@H](CC(C)C)C(=O)N[C@@H](CCCCNC(=O)COCCOCCNC(=O)COCCOCCNC(=O)CC[C@H](NC(=O)CC[C@H](NC(=O)CCCCCCCCCCCCCCCCC(=O)O)C(=O)O)C(=O)O)C(=O)N[C@@H](CCC(N)=O)C(=O)N[C@H](C(=O)N[C@@H](CC(C)C)C(=O)N[C@@H](CC(C)C)C(=O)N[C@@H](CCCCN)C(=O)N[C@@H](CCC(N)=O)C(=O)N[C@@H](CCC(=O)O)C(=O)N[C@@H](CCCNC(=N)N)C(=O)N[C@@H](CCC(N)=O)C(=O)N[C@@H](CCCCN)C(=O)NC(C)(C)C(=O)N[C@@H](CCC(N)=O)C(=O)N[C@@H](CCCNC(=N)N)C(=O)N[C@@H](CCC(=O)O)C(=O)N[C@@H](CCC(N)=O)C(=O)N[C@@H](C)C(=O)N[C@@H](CCC(=O)O)C(=O)N[C@@H](CCCCN)C(=O)N[C@@H](CC(N)=O)C(=O)N[C@@H](CCCCN)C(=O)N[C@@H](CCC(N)=O)C(=O)N[C@H](C(=O)N[C@@H](CC(C)C)C(=O)N[C@@H](C)C(=O)N[C@@H](CCC(N)=O)C(=O)N[C@H](C(N)=O)C(C)C)[C@@H](C)CC)[C@@H](C)CC)[C@@H](C)CC)C(C)C)C(C)C

The binders below were run against human corticotropin-releasing factor 2α (CRF2 α receptor) (human), Q13324 (assay: cell-based or functional assay).
human corticotropin-releasing factor 2α (CRF2 α receptor) (human), Q13324, sequence (Q13324 20-411): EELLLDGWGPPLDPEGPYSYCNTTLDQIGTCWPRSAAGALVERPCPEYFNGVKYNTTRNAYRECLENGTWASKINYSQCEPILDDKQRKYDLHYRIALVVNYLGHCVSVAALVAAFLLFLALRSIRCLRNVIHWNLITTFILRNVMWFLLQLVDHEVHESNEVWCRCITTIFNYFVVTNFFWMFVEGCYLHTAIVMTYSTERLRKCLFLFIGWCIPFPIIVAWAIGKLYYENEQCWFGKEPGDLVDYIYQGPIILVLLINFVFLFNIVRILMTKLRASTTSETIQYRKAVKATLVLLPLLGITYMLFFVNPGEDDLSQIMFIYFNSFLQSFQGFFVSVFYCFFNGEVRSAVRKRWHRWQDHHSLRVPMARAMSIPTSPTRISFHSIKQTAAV

EC50 [nM], 0% HSA [nM] | EC50 [nM], 0.1% HSA [nM] | Binder
0.04 | 2.76 | B1
0.03 | 3.49 | B2
62.1 |  | B3
0.01 |  | B4
0.07 | 0.88 | B5
0.17 | 2.62 | B6
